Measurements from CN114031685A (INST MILITARY MEDICINE ACADEMY MILITARY SCIENCES PLA, dated 2022).

What was measured:
[1] = biological target: SARS-CoV-2 WT S-ECD蛋白 (新冠野生株, Genbank NC_045512.2) (SARS-CoV-2, UniProt P0DTC2 14-1213)
[2] = biological target: Beta株 S蛋白 (on pseudovirus / live virus) (SARS-CoV-2 Beta株 (B.1.351)); assay: cell-based or functional assay
[3] = biological target: Delta株 S蛋白 (on pseudovirus / live virus) (SARS-CoV-2 Delta株 (B.1.617.2)); assay: cell-based or functional assay
[4] = biological target: Alpha株 S蛋白 (on pseudovirus) (SARS-CoV-2 Alpha株 (B.1.1.7)); assay: cell-based or functional assay
[5] = biological target: Omicron株 S蛋白 (on pseudovirus) (SARS-CoV-2 Omicron株 (B.1.1.529)); assay: cell-based or functional assay
[6] = biological target: Gamma株 S蛋白 (on pseudovirus) (SARS-CoV-2 Gamma株 (P.1)); assay: cell-based or functional assay

B1: 抗SARS-CoV-2全人源单克隆抗体ZW2G10 (antibody, V domains shown)
VH: EVQLVESGGGLVQPGRSLRLSCAASGFTFDDYAMHWVRQAPGKGLEWVSGITWNSGTIGYADSVKGRFIISRDNAKNSLHLQMNSLRVEDTALYYCAKDNSDYSGYYWELENYGMDVWGQGTTVTVSS
VL: QSVLTQPPSVSGAPGQRVTISCTGSSSNIGAGYDVHWYQQLPGTAPKLLIYDNNNRPSGVPDRFSGSKSGTSASLAITGLQAEDEADYYCQSFDSSLSGVVFGGGTRLTVLR
notes: also called 单抗ZW2G10
Kd [1]: 243 pM | 假病毒中和 EC50 [2]: 0.0184 µg/mL | 真病毒中和 EC50 (Vero E6) [2]: 1.42 µg/mL | 假病毒中和 EC50 [3]: 0.0362 µg/mL | 真病毒中和 EC50 (Vero E6) [3]: 0.71 µg/mL | 假病毒中和 EC50 [4]: 0.0141 µg/mL | 假病毒中和 EC50 [5]: 0.0193 µg/mL | 假病毒中和 EC50 [6]: 0.0156 µg/mL
